Data taken from article PMC4866497.
Where two headings read alike, the source gives them in different places. One block for each substance: values may come before it.

Legend:
[1] = target: EGFR domain 3 - Fc, wild-type CH3; test: FRET or BRET
[2] = system: MetMab full heavy chain with K409D K392D, with MetMab light chain; test: SEC
[3] = system: MetMab full heavy chain with K409D K392D, with MetMab light chain; test: SEC; remark: listed apart in the source
[4] = system: MetMab full heavy chain with Y349S K370Y T366M K409V, with MetMab light chain; test: SEC
[5] = system: MetMab full heavy chain with Y349S K370Y T366M K409V, with MetMab light chain; test: SEC; remark: listed apart in the source
[6] = system: MetMab full heavy chain with Y349S K370Y T366V K409V, with MetMab light chain; test: SEC
[7] = system: MetMab full heavy chain with Y349S K370Y T366V K409V, with MetMab light chain; test: SEC; remark: listed apart in the source
[8] = system: MetMab full heavy chain with D399K E356K, with MetMab light chain; test: SEC
[9] = system: MetMab full heavy chain with D399K E356K, with MetMab light chain; test: SEC; remark: listed apart in the source
[10] = system: MetMab full heavy chain with T366W, with MetMab light chain; test: SEC
[11] = system: MetMab full heavy chain with T366W, with MetMab light chain; test: SEC; remark: listed apart in the source
[12] = system: MetMab full heavy chain with T366S L358V Y407A, with MetMab light chain; test: SEC
[13] = system: MetMab full heavy chain with T366S L358V Y407A, with MetMab light chain; test: SEC; remark: listed apart in the source
[14] = system: MetMab full heavy chain with E356G E357D S364Q Y407A, with MetMab light chain; test: SEC
[15] = system: MetMab full heavy chain with E357D S364R Y407A, with MetMab light chain; test: SEC
[16] = system: MetMab full heavy chain with E356G E357D S364Q Y407A, with MetMab light chain; test: SEC; remark: listed apart in the source
[17] = system: MetMab full heavy chain with E357D S364R Y407A, with MetMab light chain; test: SEC; remark: listed apart in the source
[18] = system: MetMab full heavy chain with E357D S364Q Y407A, with MetMab light chain; test: SEC
[19] = system: MetMab full heavy chain with E357D S364Q Y407A, with MetMab light chain; test: SEC; remark: listed apart in the source
[20] = system: MetMab full heavy chain with wild-type CH3, with MetMab light chain [IgG part: P01857]; test: SEC
[21] = system: MetMab full heavy chain with wild-type CH3, with MetMab light chain [IgG part: P01857]; test: SEC; remark: listed apart in the source
[22] = target: IgG1 Fc, wild-type CH3; test: SEC
[23] = target: MetMab full heavy chain with T350V L351Y F405A Y407V, with MetMab light chain; test: SEC
[24] = target: MetMab full heavy chain with T350V T366L K392L T394W, with MetMab light chain; test: SEC
[25] = target: MetMab full heavy chain with T366V K409V, with MetMab light chain; test: SEC
[26] = target: MetMab full heavy chain with T366V K409V, with MetMab light chain; test: SEC; remark: listed apart in the source
[27] = target: MetMab full heavy chain with wild-type CH3, with MetMab light chain [IgG part: P01857]; test: SEC; remark: listed apart in the source
[28] = system: EGFR domain 3 - Fc with K409D K392D; test: FRET or BRET
[29] = system: EGFR domain 3 - Fc with Y349S K370Y T366M K409V; test: FRET or BRET
[30] = system: EGFR domain 3 - Fc with Y349S K370Y T366V K409V; test: FRET or BRET
[31] = system: EGFR domain 3 - Fc with T366W; test: FRET or BRET
[32] = target: VEGFR1 domain 3 - Fc, wild-type CH3; test: FRET or BRET

% AA homodimer (co-expressed with m42) [1]: 24.2%
Substance: EGFR domain 3 - Fc, wild-type CH3 (Fc fusion)

Substance: IgG1 Fc with D399K E356K
% AB heterodimer [2]: 37.5%
% AB heterodimer [3]: 91.7%

Substance: IgG1 Fc with E356G E357D S364Q Y407A
% AB heterodimer [4]: 23.6%
% AB heterodimer [5]: 83.8%

Substance: IgG1 Fc with E357D S364Q Y407A
% AB heterodimer [6]: 11.7%
% AB heterodimer [7]: 84.9%

Substance: IgG1 Fc with E357D S364R Y407A
% AB heterodimer [4]: 34.7%
% AB heterodimer [5]: 83.5%

Substance: IgG1 Fc with K409D K392D
% AB heterodimer [8]: 29.4%
% AB heterodimer [9]: 93.6%

Substance: IgG1 Fc with T366S L358V Y407A
% AB heterodimer [10]: 35%
% AB heterodimer [11]: 92.4%

Substance: IgG1 Fc with T366W
% AB heterodimer [12]: 33.1%
% AB heterodimer [13]: 94.1%

Substance: IgG1 Fc with Y349S K370Y T366M K409V
% AB heterodimer [14]: 31.8%
% AB heterodimer [15]: 29.9%
% AB heterodimer [16]: 94.2%
% AB heterodimer [17]: 85.5%

Substance: IgG1 Fc with Y349S K370Y T366V K409V
% AB heterodimer [18]: 4.7%
% AB heterodimer [19]: 92.5%

Substance: IgG1 Fc, wild-type CH3
% AB heterodimer [20]: 27.4%
% AB heterodimer [21]: 51.3%

% BB homodimer (co-expressed with m1) [22]: 15.9%
Substance: IgG1 Fc, wild-type CH3 (domain or fragment)

% AA homodimer (co-expressed with m18) [8]: 11.3%
Substance: MetMab full heavy chain with D399K E356K, with MetMab light chain (complex)

% AA homodimer (co-expressed with m19) [2]: 19.9%
Substance: MetMab full heavy chain with K409D K392D, with MetMab light chain (complex)

% AA homodimer (co-expressed with m22) [23]: 9%
Substance: MetMab full heavy chain with T350V L351Y F405A Y407V, with MetMab light chain (complex)

% AA homodimer (co-expressed with m23) [24]: 5.1%
Substance: MetMab full heavy chain with T350V T366L K392L T394W, with MetMab light chain (complex)

% AA homodimer (co-expressed with m24) [25]: 28.6%
% AA long dimer (co-expressed with m24) [25]: 24.1%
% AA homodimer (co-expressed with m24) [26]: 4.1%
% AA long dimer (co-expressed with m24) [26]: 3.8%
Substance: MetMab full heavy chain with T366V K409V, with MetMab light chain (complex)

% AA homodimer (co-expressed with m21) [10]: 15.7%
Substance: MetMab full heavy chain with T366W, with MetMab light chain (complex)

% AA homodimer (co-expressed with m17) [20]: 65%
% AA homodimer (co-expressed with m17) [27]: 31.3%
Substance: MetMab full heavy chain with wild-type CH3, with MetMab light chain (from UniProt P01857 1-399) (complex)

Substance: VEGFR1 domain 3 - Fc with D399K E356K
% AB heterodimer [28]: 96.2%

Substance: VEGFR1 domain 3 - Fc with E356G E357D S364Q Y407A
% AB heterodimer [29]: 93.9%

Substance: VEGFR1 domain 3 - Fc with E357D S364Q Y407A
% AB heterodimer [30]: 93.3%

Substance: VEGFR1 domain 3 - Fc with T366S L358V Y407A
% AB heterodimer [31]: 96.2%

Substance: VEGFR1 domain 3 - Fc, wild-type CH3
% AB heterodimer [1]: 61.2%

% BB homodimer (co-expressed with m35) [32]: 14.6%
Substance: VEGFR1 domain 3 - Fc, wild-type CH3 (Fc fusion)
